In the supplement of paper PMC9170038:

Test system: MS2 coat protein
Test: apparent KD of MS2 coat protein; designed switch direction (-1 OFF switch, 1 ON switch): -1; higher = weaker reporter binding
Summary of the method: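 Designed RNA switches sharing common flanks were transcribed on Illumina chips by stalled E. coli RNA polymerase. They were titrated with SNAP-549-labelled MS2 coat protein, from 0.7 or 1.5 nM doubling to 3 µM, in Tris-HCl pH 7.5 buffer with KCl, MgCl2, BSA, DTT, tRNA and Tween-20. Titrations ran without input, with 200 uM small-molecule ligand, or with an oligonucleotide input. The apparent KD of each design is the median over its clusters, after curve-fitting of normalised cluster fluorescence.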

[1] = input ligand: microRNA oligo, concentration not stated
[2] = Eterna round: R95, input ligand: FMN 200 uM
[3] = Eterna round: R95, input ligand: microRNA oligo, concentration not stated
[4] = Eterna round: R95, input ligand: none

Sequence | apparent KD of MS2 coat protein (input ligand: FMN 200 uM) | apparent KD of MS2 coat protein [1] | apparent KD of MS2 coat protein (input ligand: none) | apparent KD of MS2 coat protein [2] | apparent KD of MS2 coat protein [3] | apparent KD of MS2 coat protein [4]
CGGUGUAACGCAGGAUAUCAUCGCAACUGACGUUGAGAAGGGCGACAUGAGGAUCACCCAUGUGAUUUCUCAAUAUUAUACAUC [Prohibition 84 - Jieux - Exclusion NG 1] (Eterna round: R96, puzzle: Exclusion NG 1) | 212 nM | 36.5 nM | 59.8 nM | – | – | –
CGUACAAGCUUACUAUAGGACAUGAGGAUCACCCAUGUAAUUGACGUUGCAUACAAUCCGUGGAUCCCGGCUGCUCG [Eternabot (L1) Solution 15] (Eterna round: R97, puzzle: Sensor, turn-off variant 1) | 43 nM | – | 51.6 nM | – | – | –
CGUACUAACACGAAAGUGUUAGUACAAUAAGCUUGUGAAACAUGAGGAUCACCCAUGUCCUCAUAAGCUCGUCUUAG [salish99_TOv2_r3_008] (puzzle: Sensor v3, turn-off variant 2) | – | – | – | 17.1 nM | 388 nM | 14.5 nM
CGUACUAACACGAAAGUGUUAGUACAAUAAGCUUGUGAAACAUGAGGAUCACCCAUGUCCUCAUAAGCUCGUCUUAU [salish99_TOv2_r3_007] (Eterna round: R96, puzzle: Sensor v3, turn-off variant 2) | 15.6 nM | 486 nM | 17.9 nM | – | – | –
CGUACUAACACGAAAGUGUUAGUACAAUAAGCUUGUGAAACAUGAGGAUCACCCAUGUCCUCAUAAGCUCGUCUUAU [salish99_TOv2_r3_007] (puzzle: Sensor v3, turn-off variant 2) | – | – | – | 17.1 nM | 967 nM | 15.7 nM
CGUCAGUGAGGAUAUGGUUUCGUGUACAUGAGGAUCACCCAUGUUUCUUGGGACUAAUUACUAGAAGGCACUGACG [JR_Ex5_Sub033] (Eterna round: R97, puzzle: Exclusion 5) | 21.2 nM | – | 14 nM | – | – | –
CGUCCACUUGAGGAUCACCCAAGUUAGGAUAUCUCCCGGCUCGCAAAUGCAGUCGGUCAGAGAAGGAACCAGGG [Qualaon] (Eterna round: R97, puzzle: Exclusion 1) | 59.6 nM | – | 26.7 nM | – | – | –
CGUGACUCAGGAUAUCUAUUAUAUCACAUGAGGAUCACCCAUGUCCAGCGAAAGCUGGAGGGAGAAGGGAGUCACG [Fiskers Ex 5 - 44] (puzzle: Exclusion 5) | – | – | – | 52.3 nM | 136 nM | 108 nM
CGUGACUCAGGAUAUGGAUUAUAUCACAUGAGGAUCACCCAUGUCCAGCGAAAGCUGGAGUCAGAAGGGAGUCACG [Fiskers Ex 5 - 48] (puzzle: Exclusion 5) | – | – | – | 34.9 nM | 70.9 nM | 85.4 nM
CGUGCGUAUGUGAGGAUAUGCUGGUCCUUGGAUCGGCAGAAGGCACAUGAGGAUCACCCAUGUGGUGUCGUUCU [salish99_Bmod_ex4_092] (puzzle: Brourd's mod of Exclusion 4) | – | – | – | – | 129 nM | –
CGUGCGUAUGUGAGGAUAUGCUGGUCCUUGGCUCGGCAGAAGGCACAUGAGGAUCACCCAUGUGGUGUCGUACC [salish99_Bmod_ex4_061] (puzzle: Brourd's mod of Exclusion 4) | – | – | – | – | 18.9 nM | –
CGUGUACGAGGAUAUAGAUUAGAUGACAUGAGGAUCACCCAUGUGAUCAAUCUAUUUAGUUUAGAAGGUGUACAUG [JR_Ex5_Sub051] (Eterna round: R97, puzzle: Exclusion 5) | 16.1 nM | – | 12.5 nM | – | – | –
CGUGUGCAGUAGGAUAUCCAAAUCCUGUGGAUAGGAGAAGGACUGACAUGAGGAUCACCCAUGUGGGUAAAGAC [Velaxediza] (puzzle: Exclusion 6) | – | – | – | 48.8 nM | 63.7 nM | 57.7 nM
CUAAAUCAUGUAGGAUAUGCGUGGCAAAGCUAUGCAGAAGGACAUGAGGAUCACCCAUGUCAUUCCGUCUGGAAACAGACGGGA [Mat - Exclusion NG 1 - Mod of JL - D53] (Eterna round: R96, puzzle: Exclusion NG 1) | 283 nM | 18.1 nM | 22.8 nM | – | – | –
CUAAAUCAUGUAGGAUAUGCGUGGCGAAGCUAUGCAGAAGGACAUGAGGAUCACCCAUGUCUUUCCGUCUGAGUACAGACGGGA [Mat - Exclusion NG 1 - Mod of JL - D45] (Eterna round: R96, puzzle: Exclusion NG 1) | 155 nM | 16.4 nM | 18 nM | – | – | –
CUAAUACAUGUGAGGAUAUACGACUUGGAGACGGCGUAGAAGGUACAUGAGGAUCACCCAUGUGCGGGCUCCUU [Eternabot (L1) Solution 49] (Eterna round: R97, puzzle: Brourd's mod of Exclusion 4) | 55.9 nM | – | 27.5 nM | – | – | –

Sequence | apparent KD of MS2 coat protein (input ligand: FMN 200 uM) | apparent KD of MS2 coat protein [1] | apparent KD of MS2 coat protein (input ligand: none) | apparent KD of MS2 coat protein [2] | apparent KD of MS2 coat protein [3] | apparent KD of MS2 coat protein [4]
CUAGAGUCAGGAUAUACGAGAUCGAAAGAUCGGCGAUCCCUACAUGAGGAUCACCCAUGUAGAAGGGACUCUAG [Mod 11 - Jieux - Exclusion 2] (Eterna round: R97, puzzle: Exclusion 2) | 28.3 nM | – | 13.8 nM | – | – | –
CUAGAUCUUCGGAUCUAGUACAUGAGGAUCACCCAUGUUACGAGCAGAUUUUCAUACAAGCUUUUUGCUCGUCUUAU [Sensor v3 - Turn-off variant 1 - 32] (puzzle: Sensor v3, turn-off variant 1) | – | – | – | 24.7 nM | 72.4 nM | 27.3 nM
CUAGCAAUUGUAGGAUAUCGAUGUGUUUCACAUCGAGAAGGACAUGAGGAUCACCCAUGUGAAAGGAUCGUGAGAUCCAGCUAG [JL ENG1 3.75] (Eterna round: R96, puzzle: Exclusion NG 1) | 96.7 nM | 23.1 nM | 30.3 nM | – | – | –
CUAGCUAUUGUAGGAUAUCGAUGUGUUUCACAUCGAGAAGGACAUGAGGAUCACCCAUGUGAAAGGAUCGUGAGAUCCAGCUAG [JL ENG1 3.76] (Eterna round: R96, puzzle: Exclusion NG 1) | 81.9 nM | 18.7 nM | 23.5 nM | – | – | –
CUAGUAUAUCAGGAUAUGAUAUUGUGUAGUAAAUCAGAAGGGAUGACAUGAGGAUCACCCAUGUUAAGGGAUGA [JR_Ex6_Sub047] (Eterna round: R97, puzzle: Exclusion 6) | 41.4 nM | – | 54.3 nM | – | – | –
CUAGUAUAUCAGGAUAUGAUUUUAUAUAGUGGAUCAGAAGGGAUAACAUGAGGAUCACCCAUGUUAAGGAGUGA [JR_Ex6_Sub041] (Eterna round: R97, puzzle: Exclusion 6) | 129 nM | – | 49.9 nM | – | – | –
CUAUCCAGAGGAUAUACGAGAUCGAAAGAUCGGCGAUCCCUACAUGAGGAUCACCCAUGUAGAAGGCUGGAUAG [Mod 17 - Jieux - Exclusion 2] (Eterna round: R97, puzzle: Exclusion 2) | 83.8 nM | – | 19.7 nM | – | – | –
CUAUUACGAGGAUAUGAUUUAAAUAACAUGAGGAUCACCCAUGUUUUUACGUUAUUAUGUUUAGAAGGCGUAUUGU [JR_E5_Sub026] (puzzle: Exclusion 5) | – | – | – | – | 43.4 nM | –
CUAUUGCGAGGAUAUGAUUUAAAUAACAUGAGGAUCACCCAUGUUUUUACGUUGUUAUGUUCAGAAGGCGUAUUGU [JR_E5_Sub024] (puzzle: Exclusion 5) | – | – | – | – | 41.4 nM | –
CUCAUGUGAGGAUAUAGUACUUCUUCUAUUAUUAUUGAGUACUAGAAGGCACAUGAGGAUCACCCAUGUAGUAC [Ex4 - 3 - 44] (puzzle: Exclusion 4) | – | – | – | – | 23.8 nM | –
CUCCUCAUGGCGCCUAAACACAUGAGGAUCACCCAUGUACAGGCUUUUUGCCGUCUUAUAAUAAAACCGAGGAUACG [Raaen] (puzzle: Sensor v3, turn-off variant 1) | – | – | – | 76.3 nM | 167 nM | 149 nM
CUCGGACAUGAGGAUCACCCAUGUGAGGAUAUGAUGCGAUCGUCGAAAGACGAUAGCAUCAGAAGGCACAAAUG [Fiskers Ex 1 - 25] (puzzle: Exclusion 1) | – | – | – | – | 73 nM | –
CUCGGACAUGAGGAUCACCCAUGUGAGGAUAUGGCGCGAUCGUCGAAAGACGAUAGCGCCAGAAGGCACAAAUG [LRO-Excl1-26] (puzzle: Exclusion 1) | – | – | – | – | 52 nM | –
CUCGUAUUAUACAUGAGGAUCACCCAUGUGGUCACCACUCACGAGGAUAUCCCGGGAAACCGAACGGAGAAGGUGUAGAGUCAU [Eternabot solution 44] (Eterna round: R96, puzzle: Exclusion NG 3) | 164 nM | 163 nM | 196 nM | – | – | –
CUCUAGUCAGGAUAUUAGUUGCCGCCUGGCAACAGGCGGCAUGAGAAGGGACUUGAGGAUCACCCAAGUAAAAG [Rabebete] (Eterna round: R97, puzzle: Exclusion 4) | 66.1 nM | – | 368 nM | – | – | –
